Results reported in patent US20250223358A1 (ANTENGENE BIOLOGICS, published 2025).
Like-named read-outs stand apart in the source and are kept apart here.

What was measured:
human CD3 [1] = target: T1, human CD3 (human, UniProt P07766 23-207; P04234 22-171; P09693 23-182); test: cell-based or functional assay
human CD3 [2] = target: T1, human CD3; test: FACS on Jurkat cells
human CD3 [3] = target: T1, human CD3; test: cell-based or functional assay; remark: listed apart in the source
human CD3 [4] = target: T1, human CD3; test: FACS on Jurkat cells; remark: listed apart in the source

T1 sequence (P07766 23-207, chain 1 of 3): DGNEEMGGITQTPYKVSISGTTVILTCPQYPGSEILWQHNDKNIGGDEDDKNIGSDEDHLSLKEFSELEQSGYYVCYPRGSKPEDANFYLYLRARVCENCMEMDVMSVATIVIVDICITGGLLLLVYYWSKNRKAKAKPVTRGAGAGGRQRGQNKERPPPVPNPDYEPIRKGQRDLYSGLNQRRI
T1 sequence (P04234 22-171, chain 2 of 3): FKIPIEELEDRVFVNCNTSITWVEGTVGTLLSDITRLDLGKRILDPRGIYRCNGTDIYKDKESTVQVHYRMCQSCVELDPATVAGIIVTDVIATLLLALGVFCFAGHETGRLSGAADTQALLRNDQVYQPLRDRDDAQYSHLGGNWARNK
T1 sequence (P09693 23-182, chain 3 of 3): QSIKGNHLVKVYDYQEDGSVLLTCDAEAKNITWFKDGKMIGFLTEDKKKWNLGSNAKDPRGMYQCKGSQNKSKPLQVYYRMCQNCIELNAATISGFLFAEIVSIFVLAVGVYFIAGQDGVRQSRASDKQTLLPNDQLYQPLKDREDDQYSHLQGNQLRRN

Binder | EC50_Fold change (Jurkat-NFAT-luciferase activation, normalized to ch40-C12-C10-E9) (human CD3 [1]) | Top FACS signal_Fold change (Jurkat-NFAT-luciferase activation, normalized to ch40-C12-C10-E9) (human CD3 [1]) | EC50 (human CD3 [2]) | Top FACS signal (human CD3 [2]) | EC50_Fold change (Jurkat-NFAT-luciferase activation, normalized to ch40-C12-C10-E9) (human CD3 [3]) | Top signal_Fold change (Jurkat-NFAT-luciferase activation, normalized to ch40-C12-C10-E9) (human CD3 [3]) | EC50 (human CD3 [4]) | Top FACS signal (human CD3 [4])
hu40E9-L2H3-D105R.H (antibody, V domains shown) VH: EVQLVQSGAEVKKPGSSVKVSCKASGYTFSSYVIHWVRQAPGQGLEWMGYINPYNDVIKYNEKFKGRVTLTSDKSTSTAYMELSSLRSEDTAVYYCARDSYYSYRGFAYWGQGTLVTVSS VL: EIVLTQSPDFQSVTPKEKVTITCSASSSVSYMHWYQQKPDQSPKRLIYDTSKLASGVPSRFSGSGSGTDFTLTINSLEAEDAATYYCQQWSSNPPTFGGGTKVEIK | 1.95 fold | 0.81 fold | 0.56 nM | 1480 |  |  |  | 
hu40E9-L2H3-G106A.H (antibody, V domains shown) VH: EVQLVQSGAEVKKPGSSVKVSCKASGYTFSSYVIHWVRQAPGQGLEWMGYINPYNDVIKYNEKFKGRVTLTSDKSTSTAYMELSSLRSEDTAVYYCARDSYYSYDAFAYWGQGTLVTVSS VL: EIVLTQSPDFQSVTPKEKVTITCSASSSVSYMHWYQQKPDQSPKRLIYDTSKLASGVPSRFSGSGSGTDFTLTINSLEAEDAATYYCQQWSSNPPTFGGGTKVEIK | 4.95 fold | 0.99 fold | 2.39 nM | 771 |  |  |  | 
hu40E9-L2H3-N93W.L (antibody, V domains shown) VH: EVQLVQSGAEVKKPGSSVKVSCKASGYTFSSYVIHWVRQAPGQGLEWMGYINPYNDVIKYNEKFKGRVTLTSDKSTSTAYMELSSLRSEDTAVYYCARDSYYSYDGFAYWGQGTLVTVSS VL: EIVLTQSPDFQSVTPKEKVTITCSASSSVSYMHWYQQKPDQSPKRLIYDTSKLASGVPSRFSGSGSGTDFTLTINSLEAEDAATYYCQQWSSWPPTFGGGTKVEIK | 0.72 fold | 0.88 fold | 0.51 nM | 1210 |  |  |  | 
hu40E9-L2H3-S91R.L (antibody, V domains shown) VH: EVQLVQSGAEVKKPGSSVKVSCKASGYTFSSYVIHWVRQAPGQGLEWMGYINPYNDVIKYNEKFKGRVTLTSDKSTSTAYMELSSLRSEDTAVYYCARDSYYSYDGFAYWGQGTLVTVSS VL: EIVLTQSPDFQSVTPKEKVTITCSASSSVSYMHWYQQKPDQSPKRLIYDTSKLASGVPSRFSGSGSGTDFTLTINSLEAEDAATYYCQQWRSNPPTFGGGTKVEIK | 0.79 fold | 0.95 fold | 0.32 nM | 1360 |  |  |  | 
hu40E9-L2H3-N93S.L (antibody, V domains shown) VH: EVQLVQSGAEVKKPGSSVKVSCKASGYTFSSYVIHWVRQAPGQGLEWMGYINPYNDVIKYNEKFKGRVTLTSDKSTSTAYMELSSLRSEDTAVYYCARDSYYSYDGFAYWGQGTLVTVSS VL: EIVLTQSPDFQSVTPKEKVTITCSASSSVSYMHWYQQKPDQSPKRLIYDTSKLASGVPSRFSGSGSGTDFTLTINSLEAEDAATYYCQQWSSSPPTFGGGTKVEIK | 0.74 fold | 0.87 fold | 0.6 nM | 1360 |  |  |  | 
hu40E9-L2H3-Y54G.H (antibody, V domains shown) VH: EVQLVQSGAEVKKPGSSVKVSCKASGYTFSSYVIHWVRQAPGQGLEWMGYINPGNDVIKYNEKFKGRVTLTSDKSTSTAYMELSSLRSEDTAVYYCARDSYYSYDGFAYWGQGTLVTVSS VL: EIVLTQSPDFQSVTPKEKVTITCSASSSVSYMHWYQQKPDQSPKRLIYDTSKLASGVPSRFSGSGSGTDFTLTINSLEAEDAATYYCQQWSSNPPTFGGGTKVEIK | 1.06 fold | 0.94 fold | 0.51 nM | 1190 |  |  |  | 
hu40E9-L2H3-N93R.L (antibody, V domains shown) VH: EVQLVQSGAEVKKPGSSVKVSCKASGYTFSSYVIHWVRQAPGQGLEWMGYINPYNDVIKYNEKFKGRVTLTSDKSTSTAYMELSSLRSEDTAVYYCARDSYYSYDGFAYWGQGTLVTVSS VL: EIVLTQSPDFQSVTPKEKVTITCSASSSVSYMHWYQQKPDQSPKRLIYDTSKLASGVPSRFSGSGSGTDFTLTINSLEAEDAATYYCQQWSSRPPTFGGGTKVEIK | 0.81 fold | 1.07 fold | 0.63 nM | 1420 |  |  |  | 
hu40E9-L2H3-N55S.H (antibody, V domains shown) VH: EVQLVQSGAEVKKPGSSVKVSCKASGYTFSSYVIHWVRQAPGQGLEWMGYINPYSDVIKYNEKFKGRVTLTSDKSTSTAYMELSSLRSEDTAVYYCARDSYYSYDGFAYWGQGTLVTVSS VL: EIVLTQSPDFQSVTPKEKVTITCSASSSVSYMHWYQQKPDQSPKRLIYDTSKLASGVPSRFSGSGSGTDFTLTINSLEAEDAATYYCQQWSSNPPTFGGGTKVEIK | 1.35 fold | 1.03 fold | 0.51 nM | 1160 |  |  |  | 

The next lines start with the values.

EC50_Fold change (Jurkat-NFAT-luciferase activation, normalized to ch40-C12-C10-E9) (human CD3 [1]) | Top FACS signal_Fold change (Jurkat-NFAT-luciferase activation, normalized to ch40-C12-C10-E9) (human CD3 [1]) | EC50 (human CD3 [2]) | Top FACS signal (human CD3 [2]) | EC50_Fold change (Jurkat-NFAT-luciferase activation, normalized to ch40-C12-C10-E9) (human CD3 [3]) | Top signal_Fold change (Jurkat-NFAT-luciferase activation, normalized to ch40-C12-C10-E9) (human CD3 [3]) | EC50 (human CD3 [4]) | Top FACS signal (human CD3 [4]) | Binder
1.23 fold | 0.94 fold | 0.64 nM | 1190 |  |  |  |  | hu40E9-L2H3-Y101F.H (antibody, V domains shown) VH: EVQLVQSGAEVKKPGSSVKVSCKASGYTFSSYVIHWVRQAPGQGLEWMGYINPYNDVIKYNEKFKGRVTLTSDKSTSTAYMELSSLRSEDTAVYYCARDSFYSYDGFAYWGQGTLVTVSS VL: EIVLTQSPDFQSVTPKEKVTITCSASSSVSYMHWYQQKPDQSPKRLIYDTSKLASGVPSRFSGSGSGTDFTLTINSLEAEDAATYYCQQWSSNPPTFGGGTKVEIK
0.61 fold | 0.64 fold | 0.49 nM | 1360 |  |  |  |  | hu40E9-L3H4 (antibody, V domains shown, humanized 40-C12-C10-E9) VH: EVQLVQSGAEVKKPGSSVKVSCKASGYTFSSYVIHWVRQAPGQGLEWIGYINPYNDVIKYNEKFKGRATLTSDKSTSTAYMELSSLRSEDTAVYYCARDSYYSYDGFAYWGQGTLVTVSS VL: EIVLTQSPDFQSVTPKEKVTITCSASSSVSYMHWYQQKPDQSPKRWIYDTSKLASGVPSRFSGSGSGTDYTLTINSLEAEDAATYYCQQWSSNPPTFGGGTKVEIK
1.33 fold | 0.97 fold | 0.75 nM | 1250 |  |  |  |  | hu40E9-L3H1 (antibody, V domains shown, humanized 40-C12-C10-E9) VH: EVQLVQSGAEVKKPGSSVKVSCKASGGTFSSYVIHWVRQAPGQGLEWMGYINPYNDVIKYNEKFKGRVTITADKSTSTAYMELSSLRSEDTAVYYCARDSYYSYDGFAYWGQGTLVTVSS VL: EIVLTQSPDFQSVTPKEKVTITCSASSSVSYMHWYQQKPDQSPKRWIYDTSKLASGVPSRFSGSGSGTDYTLTINSLEAEDAATYYCQQWSSNPPTFGGGTKVEIK
 |  |  |  | 1.29 fold | 0.79 fold | 0.36 nM | 1920 | hu40E9-L2H5 (antibody, V domains shown) VH: EVQLVQSGAEVKKPGSSVKVSCKASGYTFSSYVIHWVRQAPGQGLEWMGYINPGSGVIKYNEKFKGRVTLTSDKSTSTAYMELSSLRSEDTAVYYCARDSYYSYDGFAYWGQGTLVTVSS VL: EIVLTQSPDFQSVTPKEKVTITCSASSSVSYMHWYQQKPDQSPKRLIYDTSKLASGVPSRFSGSGSGTDFTLTINSLEAEDAATYYCQQWSSNPPTFGGGTKVEIK
0.8 fold | 0.89 fold | 0.86 nM | 1570 |  |  |  |  | hu40E9-L2H4 (antibody, V domains shown, humanized 40-C12-C10-E9) VH: EVQLVQSGAEVKKPGSSVKVSCKASGYTFSSYVIHWVRQAPGQGLEWIGYINPYNDVIKYNEKFKGRATLTSDKSTSTAYMELSSLRSEDTAVYYCARDSYYSYDGFAYWGQGTLVTVSS VL: EIVLTQSPDFQSVTPKEKVTITCSASSSVSYMHWYQQKPDQSPKRLIYDTSKLASGVPSRFSGSGSGTDFTLTINSLEAEDAATYYCQQWSSNPPTFGGGTKVEIK
0.87 fold | 0.96 fold | 0.47 nM | 1160 |  |  |  |  | hu40E9-L2H3-Y102S.H (antibody, V domains shown) VH: EVQLVQSGAEVKKPGSSVKVSCKASGYTFSSYVIHWVRQAPGQGLEWMGYINPYNDVIKYNEKFKGRVTLTSDKSTSTAYMELSSLRSEDTAVYYCARDSYSSYDGFAYWGQGTLVTVSS VL: EIVLTQSPDFQSVTPKEKVTITCSASSSVSYMHWYQQKPDQSPKRLIYDTSKLASGVPSRFSGSGSGTDFTLTINSLEAEDAATYYCQQWSSNPPTFGGGTKVEIK
 |  |  |  | 4.57 fold | 0.74 fold | 4.17 nM | 1260 | hu40E9-L2H6 (antibody, V domains shown) VH: EVQLVQSGAEVKKPGSSVKVSCKASGYTFSSYVIHWVRQAPGQGLEWMGYINPYNDVIKYNEKFKGRVTLTSDKSTSTAYMELSSLRSEDTAVYYCARESFSSYDGFAYWGQGTLVTVSS VL: EIVLTQSPDFQSVTPKEKVTITCSASSSVSYMHWYQQKPDQSPKRLIYDTSKLASGVPSRFSGSGSGTDFTLTINSLEAEDAATYYCQQWSSNPPTFGGGTKVEIK
0.57 fold | 0.73 fold | 0.52 nM | 1410 |  |  |  |  | hu40E9-L3H2 (antibody, V domains shown, humanized 40-C12-C10-E9) VH: EVQLVQSGAEVKKPGSSVKVSCKASGYTFSSYVIHWVRQAPGQGLEWMGYINPYNDVIKYNEKFKGRVTITADKSTSTAYMELSSLRSEDTAVYYCARDSYYSYDGFAYWGQGTLVTVSS VL: EIVLTQSPDFQSVTPKEKVTITCSASSSVSYMHWYQQKPDQSPKRWIYDTSKLASGVPSRFSGSGSGTDYTLTINSLEAEDAATYYCQQWSSNPPTFGGGTKVEIK
